B1: sR47 mut C/D and C'/D' (structured_RNA)
RNA: GAUGAAGAUUCUGAGCUCGGCAGGUCCUUCGGAGUUCUGAGGAUCUUGAGUGCUUCUUCACCUU

What follows are binders tested against T1, L7Ae (Pyrococcus abyssi, UniProt P62008 1-123) (assay: EMSA).

Binding result, no binding:
GGGACUGACCAGUGAUGACCC (structured_RNA) [sR6 CCA spacer]
GGGACUGAGGGUGAUGACCC (structured_RNA) [sR6 2-nt spacer GG]

Molecular target: T1, L7Ae
Assay: EMSA
Remark: another data set of the same source

Binding result, no binding:
B1
GGGACUGACCCGUGAUGACCC (structured_RNA) [sR6 LC]
GGGACUGAGCAUUGAUGACCC (structured_RNA) [sR6 L2]
GGGACUUCGCAGUUCUGACCC (structured_RNA) [sR6 mut C'/D']
